Test results: patent publication US20030108554A1 (published 2003)

What was measured:
[1] = target: T1, purified yeast recombinant GIP90 with FLAG tag at N-terminal position and 6 histidine tail at C-terminal position
T1 chain: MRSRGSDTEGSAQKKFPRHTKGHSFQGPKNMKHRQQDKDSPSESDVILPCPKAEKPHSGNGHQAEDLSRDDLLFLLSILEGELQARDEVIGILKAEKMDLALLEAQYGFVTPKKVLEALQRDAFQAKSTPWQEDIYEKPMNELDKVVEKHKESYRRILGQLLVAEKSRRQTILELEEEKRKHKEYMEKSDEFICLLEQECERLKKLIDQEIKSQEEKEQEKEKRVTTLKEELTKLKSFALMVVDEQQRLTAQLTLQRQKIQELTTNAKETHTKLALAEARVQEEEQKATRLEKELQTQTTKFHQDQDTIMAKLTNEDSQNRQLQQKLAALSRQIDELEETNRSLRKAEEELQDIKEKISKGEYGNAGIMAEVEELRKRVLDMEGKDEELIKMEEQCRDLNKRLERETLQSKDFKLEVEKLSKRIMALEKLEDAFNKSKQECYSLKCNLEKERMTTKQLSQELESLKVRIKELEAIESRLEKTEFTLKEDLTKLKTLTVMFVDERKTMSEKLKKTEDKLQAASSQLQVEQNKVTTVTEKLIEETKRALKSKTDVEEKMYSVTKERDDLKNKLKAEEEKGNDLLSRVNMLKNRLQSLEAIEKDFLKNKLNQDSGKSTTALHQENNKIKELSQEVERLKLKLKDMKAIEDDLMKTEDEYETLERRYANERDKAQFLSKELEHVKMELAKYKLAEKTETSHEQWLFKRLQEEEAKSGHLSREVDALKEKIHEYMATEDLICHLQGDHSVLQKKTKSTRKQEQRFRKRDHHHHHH

[2] = target: T2, GIP130c with deletion of the N terminal 240-residues (human, UniProt Q4L180 241-1128); assay: yeast two-hybrid
T2 sequence: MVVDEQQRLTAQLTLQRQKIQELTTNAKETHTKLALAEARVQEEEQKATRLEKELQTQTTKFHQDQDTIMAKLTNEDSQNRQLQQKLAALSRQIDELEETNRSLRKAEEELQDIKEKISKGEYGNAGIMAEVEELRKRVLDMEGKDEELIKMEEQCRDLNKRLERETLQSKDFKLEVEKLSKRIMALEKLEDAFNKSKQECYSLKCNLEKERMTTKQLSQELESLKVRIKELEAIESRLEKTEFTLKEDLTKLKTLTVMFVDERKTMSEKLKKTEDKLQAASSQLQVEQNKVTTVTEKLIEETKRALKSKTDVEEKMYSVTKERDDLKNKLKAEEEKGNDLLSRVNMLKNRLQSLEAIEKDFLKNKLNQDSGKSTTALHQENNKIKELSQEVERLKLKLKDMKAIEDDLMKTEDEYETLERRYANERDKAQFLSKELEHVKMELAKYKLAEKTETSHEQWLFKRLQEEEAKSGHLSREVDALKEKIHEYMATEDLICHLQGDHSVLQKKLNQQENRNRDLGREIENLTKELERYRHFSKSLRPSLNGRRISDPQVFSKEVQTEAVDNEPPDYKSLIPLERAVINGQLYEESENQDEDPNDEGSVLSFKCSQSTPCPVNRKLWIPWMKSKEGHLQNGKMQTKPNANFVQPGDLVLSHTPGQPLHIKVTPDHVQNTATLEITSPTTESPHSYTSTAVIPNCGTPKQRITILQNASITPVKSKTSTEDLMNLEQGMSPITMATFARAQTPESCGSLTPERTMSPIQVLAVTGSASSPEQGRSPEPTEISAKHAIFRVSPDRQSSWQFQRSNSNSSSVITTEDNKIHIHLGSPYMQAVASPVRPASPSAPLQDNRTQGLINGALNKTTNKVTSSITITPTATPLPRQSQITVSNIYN

DOC1-related protein = target: T3, DOC1-related protein (human, UniProt Q4L180 241-1128); assay: yeast two-hybrid
T3 sequence: T2 sequence

[3] = target: T4, GIP130b with deletion of the N terminal 240-residues (human, UniProt Q4L180 241-1128); assay: yeast two-hybrid
T4 sequence: T2 sequence

pol κ = target: T5, pol κ (UniProt Q9UBT6 1-870); assay: yeast two-hybrid
T5 construct: Tested in yeast two-hybrid (GAL4 domain fusion); also called primary protein product of the POLK
T5 sequence (looked up): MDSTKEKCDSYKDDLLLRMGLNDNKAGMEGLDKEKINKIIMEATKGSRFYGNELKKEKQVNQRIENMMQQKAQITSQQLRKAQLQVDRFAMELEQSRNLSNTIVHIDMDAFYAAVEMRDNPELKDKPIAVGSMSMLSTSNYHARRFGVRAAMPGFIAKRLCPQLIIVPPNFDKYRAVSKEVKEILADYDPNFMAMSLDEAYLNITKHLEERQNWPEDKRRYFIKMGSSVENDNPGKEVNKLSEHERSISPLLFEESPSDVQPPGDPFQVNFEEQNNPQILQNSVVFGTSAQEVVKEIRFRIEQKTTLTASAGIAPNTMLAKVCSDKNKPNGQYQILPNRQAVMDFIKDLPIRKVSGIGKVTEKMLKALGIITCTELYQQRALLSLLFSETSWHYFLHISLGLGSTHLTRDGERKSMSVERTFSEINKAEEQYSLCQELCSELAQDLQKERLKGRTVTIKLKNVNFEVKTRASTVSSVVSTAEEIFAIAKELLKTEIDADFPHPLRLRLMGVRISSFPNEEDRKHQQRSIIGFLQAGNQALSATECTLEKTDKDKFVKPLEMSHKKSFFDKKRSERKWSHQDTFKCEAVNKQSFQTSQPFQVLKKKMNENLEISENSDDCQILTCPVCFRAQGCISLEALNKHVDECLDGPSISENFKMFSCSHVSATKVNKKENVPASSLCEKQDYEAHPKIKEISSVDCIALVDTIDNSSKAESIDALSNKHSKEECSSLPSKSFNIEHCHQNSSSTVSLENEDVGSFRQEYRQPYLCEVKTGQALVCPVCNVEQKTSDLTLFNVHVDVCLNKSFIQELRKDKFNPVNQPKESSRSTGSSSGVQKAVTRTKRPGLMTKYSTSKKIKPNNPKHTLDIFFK

binding result [2]: no binding | binding result (DOC1-related protein): no binding | binding result [3]: no binding | binding result (pol κ): no binding
B1: Goodpasture antigen binding protein (GPBP) (enzyme, UniProt Q9Y5P4 1-624, looked up)
chain: MSDNQSWNSSGSEEDPETESGPPVERCGVLSKWTNYIHGWQDRWVVLKNNALSYYKSEDETEYGCRGSICLSKAVITPHDFDECRFDISVNDSVWYLRAQDPDHRQQWIDAIEQHKTESGYGSESSLRRHGSMVSLVSGASGYSATSTSSFKKGHSLREKLAEMETFRDILCRQVDTLQKYFDACADAVSKDELQRDKVVEDDEDDFPTTRSDGDFLHSTNGNKEKLFPHVTPKGINGIDFKGEAITFKATTAGILATLSHCIELMVKREDSWQKRLDKETEKKRRTEEAYKNAMTELKKKSHFGGPDYEEGPNSLINEEEFFDAVEAALDRQDKIEEQSQSEKVRLHWPTSLPSGDAFSSVGTHRFVQKPYSRSSSMSSIDLVSASDDVHRFSSQVEEMVQNHMTYSLQDVGGDANWQLVVEEGEMKVYRREVEENGIVLDPLKATHAVKGVTGHEVCNYFWNVDVRNDWETTIENFHVVETLADNAIIIYQTHKRVWPASQRDVLYLSVIRKIPALTENDPETWIVCNFSVDHDSAPLNNRCVRAKINVAMICQTLVSPPEGNQEISRDNILCKITYVANVNPGGWAPASVLRAVAKREYPKFLKRFTSYVQEKTAGKPILF
notes: Protein kinase; Fusion parts are not written as pieces
^32P incorporation into GIP90 (in vitro phosphorylation with [γ^32P] ATP, Western blot and autoradiography) [1]: resulted in ^32P incorporation into GIP90
